We go through 1 molecule from paper PMC6399320, “The SIAH2-NRF1 axis spatially regulates tumor microenvironment remodeling for tumor progression” (Nature Communications, 2019).

The target in this test is T1, His-NRF1 (Nuclear Respiratory Factor 1), bacterially expressed (UniProt Q16656 1-503).
T1 construct: Nuclear Respiratory Factor 1 (NRF1), cDNA cloned into pET28a; Vector pET28a; source: Escherichia coli BL21, expressed and purified
T1 sequence (looked up): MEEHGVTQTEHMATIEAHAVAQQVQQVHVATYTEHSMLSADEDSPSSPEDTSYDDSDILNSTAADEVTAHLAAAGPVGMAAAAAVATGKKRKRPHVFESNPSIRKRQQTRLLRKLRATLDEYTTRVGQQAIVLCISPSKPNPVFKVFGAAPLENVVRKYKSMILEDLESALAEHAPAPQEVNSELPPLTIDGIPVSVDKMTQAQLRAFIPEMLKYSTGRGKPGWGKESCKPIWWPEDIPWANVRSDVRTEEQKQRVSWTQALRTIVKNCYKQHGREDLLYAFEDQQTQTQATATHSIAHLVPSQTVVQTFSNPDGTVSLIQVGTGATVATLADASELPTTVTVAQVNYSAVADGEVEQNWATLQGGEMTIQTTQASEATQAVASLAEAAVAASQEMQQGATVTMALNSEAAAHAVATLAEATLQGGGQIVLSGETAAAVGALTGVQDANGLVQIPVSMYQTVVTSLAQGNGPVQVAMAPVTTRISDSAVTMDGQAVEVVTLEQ
The test can be described thus: pull-down; GST pull-down in vitro with bacterially expressed His-NRF1 and GST-SIAH2. The note with it: both partners purified.

B1: GST-SIAH2, bacterially expressed (enzyme, UniProt O43255 1-324, looked up)
chain: MSRPSSTGPSANKPCSKQPPPQPQHTPSPAAPPAAATISAAGPGSSAVPAAAAVISGPGGGGGAGPVSPQHHELTSLFECPVCFDYVLPPILQCQAGHLVCNQCRQKLSCCPTCRGALTPSIRNLAMEKVASAVLFPCKYATTGCSLTLHHTEKPEHEDICEYRPYSCPCPGASCKWQGSLEAVMSHLMHAHKSITTLQGEDIVFLATDINLPGAVDWVMMQSCFGHHFMLVLEKQEKYEGHQQFFAIVLLIGTRKQAENFAYRLELNGNRRRLTWEATPRSIHDGVAAAIMNSDCLVFDTAIAHLFADNGNLGINVTISTCCP
notes: E3 ligase SIAH2, cDNA cloned into pGEX-4T-1; Vector pGEX-4T-1; source: Escherichia coli BL21, expressed and purified
As for B1, the binding result is reported as “binds”.
